# What was measured:
# [1] = tested on: HSV-tk; assay: PCR of genomic DNA from transduced PBLs of three donors; format: cell-based, HSV-1; conditions: TKA1/TKB1 primers
# Description: (§1) CEM A301 cells were cultured in RPMI 1640 (Hyclone) supplemented with 10% FBS (Hyclone) and 2 mM glutamine. CEM A301 cells were infected with Am12 culture supernatant containing SFCMM-3 HSV-tk mutants 2 and 234. The day before transduction 5×10^5 cells/ml were cultured. Transduction was then performed by one centrifugation cycle of retroviral vector particles on cells. After the transduction phase, cells were collected and the percentage of actually transduced cells evaluated by FACS analysis. PBLs from three different donors were transduced (as described in Materials and Methods section of Example 2) with Am12 supernatant containing SFCMM-3 HSV-tk mutant 2 as well as SFCMM-3.
# (§2) The transduced cells were then sorted for ΔLNGFR expression and expanded a few days in culture.
# One pellet for PCR analysis was prepared from the transduced non selected cells as well as from transduced selected cells as described in Materials and Methods section of Example 2. […] Ten microliters of amplified product were analyzed by agarose gel electrophoresis.
# [2] = tested on: HSV-tk; assay: RT-PCR of HSV-tk mutants, RNA from Am12 supernatants; design: species or system HSV-1
# Excerpt: After sequence confirmation of SFCMM-3 HSV-tk mutants (FIGS. 1A-1C), one plasmid clone of each type was used to transiently transfect E86 cells. SFCMM-3 and TK3 plasmids were used as controls. The supernatant was collected from the E86 cultures and used to stably transduce the amphotropic packaging cell line Am12 as described in Materials and Methods section of Example 2. The resulting cell populations were selected for ΔLNGFR expression.
# RNA was extracted from the E86 as well as Am12 culture supernatants containing infectious retroviral particles. RT-PCR reactions were carried out on RNA from E86 and Am12 supernatants using TKA1 and TKB1 primers according to the protocol described in Materials and Methods section of Example 2.
# [3] = tested on: HSV-tk; assay: PCR of genomic DNA from transduced CEM A301 cells; format: cell-based, HSV-1
# Description: as §1, §2
# One pellet for PCR analysis was prepared from the transduced non selected cells as well as from transduced selected cells as described in Materials and Methods section of Example 2. Genomic DNA was extracted from pellet cells and PCR reaction was carried out with TKA1 and TKB1 or TKY1 and TKY2 or TKZ1 and TKZ2 primers (as indicated in the table below) in a 25 μl reaction mixture containing 100-500 ng of genomic DNA, 1×PCR Buffer with 1.5 mM of MgCl2 (Applied Biosystems), […] of each dNTPs, 300 nM of each primer, 1.25 Units of AmpliTaq Gold (Applied Biosystems). The PCR cycling profile consisted of a first denaturation step for 15 min at 94° C. followed by 40 cycles with denaturation for 30 s at 94° C., annealing for 50 s at 60° C. and extension for 1 min at 72° C., and one final extension step of 10 min at 72° C., […] Ten microliters of amplified product were analyzed by agarose gel electrophoresis.
molecule,measurement,setting,value
"TkMut2 (nucleic acid, HSV-1 thymidine kinase mutant sequence.) DNA: ATGGCTTCGTACCCCTGCCATCAACACGCGTCTGCGTTCGACCAGGCTGCGCGTTCTCGCGGCCATAGCAACCGACGTACGGCGTTGCGCCCTCGCCGGCAGCAAGAAGCCACGGAAGTCCGCCTGGAGCAGAAAATGCCCACGCTACTGCGGGTTTATATAGACGGTCCTCACGGGATGGGGAAAACCACCACCACGCAACTGCTGGTGGCCCTGGGTTCGCGCGACGATATCGTCTACGTACCCGAGCCGATGACTTACTGGCAGGTGCTGGGGGCTTCCGAGACAATCGCGAACATCTACACCACACAACACCGCCTCGACCAGGGCGAGATATCGGCCGGGGACGCGGCGGTGGTAATGACAAGCGCCCAGATAACAATGGGCATGCCTTATGCCGTGACCGACGCCGTTCTGGCTCCTCATGTCGGGGGGGAGGCTGGGAGTTCACATGCCCCGCCCCCGGCCCTCACCCTCATCTTCGACCGCCATCCCATCGCCGCCCTCCTGTGCTACCCGGCCGCGCGATACCTTATGGGCAGCATGACCCCCCAGGCCGTGCTGGCGTTCGTGGCCCTCATCCCGCCGACCTTGCCCGGCACAAACATCGTGTTGGGGGCCCTTCCGGAGGACAGACACATCGACCGCCTGGCCAAACGCCAGCGCCCCGGCGAGCGGCTTGACCTGGCTATGCTGGCCGCGATTCGCCGCGTTTACGGGCTGCTTGCCAATACGGTGCGGTATCTGCAGGGCGGCGGGTCGTGGTGGGAGGATTGGGGACAGCTTTCGGGGACGGCCGTGCCGCCCCAGGGTGCCGAGCCCCAGAGCAACGCGGGCCCACGACCCCATATCGGGGACACGTTATTTACCCTGTTTCGGGCCCCCGAGTTGCTGGCCCCCAACGGCGACCTGTATAACGTGTTTGCCTGGGCCTTGGACGTCTTGGCCAAACGCCTCCGTCCCATGCACGTCTTTATCCTGGATTACGACCAATCGCCCGCCGGCTGCCGGGACGCCCTGCTGCAACTTACCTCCGGGATGGTCCAGACCCACGTCACCACCCCAGGCTCCATACCGACGATCTGCGACCTGGCGCGCACGTTTGCCCGGGAGATGGGGGAGGCTAACTGA",lower band (spliced form of HSV-tk gene),[1],No lower band is observed
same,additional bands,[2],two very weak bands of approximately 100 and 200 bp are detected
same,lower band (spliced form),[2]; TKA1/TKB1 primers,not detected
same,lower band (spliced form of HSV-tk gene),"[3]; CEM A301, TKA1/TKB1 primers, before and after selection",No lower band is observed
same,lower band (spliced form of HSV-tk gene),"[3]; CEM A301, TKY1/TKY2 and TKZ1/TKZ2 primers",No lower band is observed

# — patent US10314925B2, “Thymidine kinase” (priority 2004, dated 2019)
